Test results reported in the RNAGym collection of RNA variant scans (doi:10.1073/pnas.2313332121).

B1: TPR t1 (parent)
chain: GACCAAUCUGCCCUCAGAGCUCGAGAACAUCUUCGGAUGCAGAGGAGGCAGGCUUCGGUGGCGCGAUAGCGCCAACGUCCUCAACCUCCAAUGCAUCCCACCACAUGAUGAUGCCUGAAGAGCCUUGGUUUUUUG

Variants of: B1
Assay: polymerase ribozyme fitness, log enrichment relative to wild type (log ratio); higher = more active; in vitro selection for triplet polymerase activity
How it was run: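 After PCR construction and transcription, each subunit's mutant library from a heterodimeric triplet polymerase ribozyme was annealed with a biotinylated primer, the partner subunit and triplets. Incubation was frozen, at −7 °C, and extended constructs were gel-excised, bound to streptavidin beads and amplified by RT-PCR, in one selection round done in triplicate. Fitness is the logarithm of a genotype's enrichment divided by that of the wild type, from inverse-variance-weighted replicate averages of Illumina-sequenced inputs and outputs. The base of the logarithm is 2, and genotypes needed ≥10 input reads and ≥1 read per output.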

In order of falling “polymerase ribozyme fitness (log ratio)” value:
1. C13U A121G  2.04
2. C56G C88A C115U A119G  1.4
3. C8A G48A C89U C124U  1.22
4. C8A G120U  0.91
5. C53A U106G A121U  0.877
6. A6U A37U U112A U130A  0.657
7. C8A C56G A91C C123A  0.619
8. C8G C13A  0.587
9. G61A U78G G120A  0.458
10. A6U C72A  0.375
11. C3U A119G  0.367
12. C15U G36A A121C  0.213
13. G10U C13A C104U  -0.097
14. C53U  -0.1
15. C49A U81A U87G  -0.13
16. C94U C115A  -0.137
17. G44U G69U  -0.207
18. C123A G128U  -0.255
19. U7C C56U C72U U130G  -0.275
20. C56U G93A  -0.279
21. A6U C76G  -0.287
22. C53A U55A C70U  -0.287
23. G58C C73U C86G  -0.297
24. A5U C12A A90G  -0.323
25. G36A C82G C123U  -0.368
26. U9A C49A C72A A100U  -0.384
27. C88U C115A  -0.441
28. A6U U54A  -0.507
29. C73A U87C U96C A111G  -0.596
30. A6G G113A  -0.703
31. G60A G135A  -0.733
32. G45A G51U G58U A74U C80A  -0.751
33. A16G  -0.761
34. U78C C94G A95G A118U  -0.801
35. C11G G47A  -0.824
36. A41C C53U  -0.83
37. G10A C97U  -0.852
38. U7A C53U C70U  -0.899
39. G45A C70A C115A  -0.928
40. C88A G135U  -0.929
41. G35U G69U C123A C124A  -1
42. A6U G44A  -1.02
43. U7G C56A G57A G93U  -1.03
44. A27C C72U C124A  -1.07
45. G63C U130C  -1.1
46. G10A G61U A100C G135U  -1.17
47. C11U A37U U55C  -1.28
48. C8G C53U C89A  -1.28
49. C49G G110A  -1.31
50. U59C G110A  -1.31
51. C53A G69C  -1.38
52. A43G G120U  -1.47
53. C13U A37C C53G G128C  -1.48
54. A5G G36A C53G C73U C80A C82G  -1.5
55. C49G C56A C94U A111G  -1.5
56. A43U A74C  -1.55
57. G63A G122A  -1.62
58. C62U A84C C89A C123U  -1.62
59. C56U G128U  -1.65
60. A26U C94U C123G U132C  -1.68
61. A26U C123G  -1.74
62. U78C A83C C102U  -1.78
63. A50C U129A  -1.83
64. G60C C114A  -1.83
65. A2U C13U G77C  -1.85
66. C40U U92C  -1.86
67. C3U C72G A90U U106A  -1.94
68. C62U C73A G113A  -1.96
69. U59A G77U  -2.02
70. C53G C114U  -2.03
71. A41C C53U G122A  -2.04
72. C80A C123U  -2.06
73. A41U G93C  -2.07
74. A46U G122A  -2.16
75. U9G C56G G61A  -2.17
76. G44U A84U A118G  -2.17
77. G69U U87A C97A  -2.19
78. G127U G128A  -2.19
79. G10C G42U  -2.19
80. U9G A26U C72U  -2.22
81. U33G G69U  -2.25
82. A37U G61U A83G C88A  -2.28
83. C53G C56G C82G C85A C94G  -2.28
84. U7A C12G C89G A111C  -2.35
85. C11U C85G  -2.37
86. A18G C70U  -2.4
87. U21A G57U C85U G120U  -2.48
88. C11G G35A  -2.51
89. G47C C49G U96A  -2.52
90. A26U C72U  -2.63
91. C86U A91G C98U  -2.63
92. A41G C73A C82A C115A G135U  -2.65
93. U54C G60U G69U U133G  -2.67
94. A2G G47U A84C C88U A90U A91C U133G  -2.71
95. C11U A37C G45U G58A  -2.72
96. A5U G117C  -2.92
97. A66C U129A  -2.92
98. C11U C12A A41C C56G G69U  -2.94
99. C64U C114U U125A  -2.95
100. G71A C102A  -2.99
101. A37U C49U C64U C114U  -3.02
102. A27U C97U U112A  -3.08
103. U96A C115A  -3.09
104. A2U U32C G48A C49G C64U  -3.23
105. A50G C53G G61A U116A G117A  -3.29
106. G44U G52C C82G G113A C124U  -3.3
107. C73U G110C  -3.31
108. G36U G51C G69U C115U  -3.32
109. C73A C88U C114G A118U  -3.36
110. G48U C88G U96A  -3.43
111. C80A A95U G120A U130G  -3.52
112. G45C A100G G120C  -3.59
113. A43U A46G U96G U112A G128A  -3.6
114. U38C G48U A68G G122A C123U  -3.71
115. C70A C82A U92C  -3.72
116. C4G C49G G60C A119U U133A  -3.77
117. C12U G23A G120A  -3.8
118. G17A G61A C114G C124A  -3.95
119. C12G C20G C79U C82U A91U G107C G117A  -4
120. C53A G71A C85A G135U  -4.02
121. G10U A18U C70U  -4.05
122. G47C C62G  -4.1
123. G19A G61C  -4.27
124. C86U G110A A111C  -4.3
125. U14A A29G U55C C72U C86U  -4.41
126. C11U C20G G117U  -4.42
127. C49A G61U U81C G128U  -4.52
128. C89A G117U  -4.53
129. C12G C15G G45A G61C  -4.58
130. C28U G61C  -4.7
131. A18U A111G U129A  -4.75
132. C22G U32G C49A G61U U87C  -4.78
133. C8G C28A U130A  -5.09
134. G44U C97G G113A  -5.15
135. C28G G61A G113C  -5.25
136. C12U G39A C72A A74G C79U C80G  -5.3
137. A26G G42C U59C G113A  -5.32
138. C34A C89U G117U  -5.32
139. A29G C97A  -5.53
140. C70U C72U A95C A111U  -5.58
141. C40G A91C C98U  -5.6
142. G42C A50C A105G  -5.66
143. C28U C49A C72A C114G  -5.7
144. U109A U131G  -5.71
145. C8A C31A U129C  -5.73
146. C15U A27G U32A A46C C82A G117U  -5.76
147. G17U C20U A26G G42C A83U C124U U130G  -5.83
148. C8A U30G C115U U130G  -5.92
149. C28G C53U U67G C73G C98A C102A A111U C114G  -6
150. U21C U54A C64A U78C G93A A111C  -6.03
151. A27U A29G G63C G127C  -6.04
152. G48A C64U U78C G107U  -6.15
153. C13U A18U U81G G117U  -6.34
154. U59C G107C U112A U133G  -6.34
155. G42U G52C C97G C115U  -6.37
156. U9G C31U C94G  -6.42
157. C8A A43C C70G  -6.43
158. A27U G60U G63A U109A C124U  -6.47
159. U33A G51A C72U U112A  -6.67
160. C13A C15G A37U A103C  -6.73
161. C12G C34G C114A  -6.75
162. C53G G63A C94A C115G G128C  -6.79
163. U33A A50U G93C A95G C101G  -7.02
164. U33G G69A C70A A111U  -7.15
165. U32A G48A C62U C97U A100U  -7.37
166. U21G G23U A27G A83C U112G  -7.42
167. G44C G61C U78C C98A G113U  -7.8
